Results from article PMC8249470, “Binding of guide piRNA triggers methylation of the unstructured N-terminal region of Aub leading to assembly of the piRNA amplification complex” (Nature Communications, 2021).
One block for each molecule: values may come before it. Where no end group is shown, it is not given here. [ ]: non-standard residue; d: D form. Arg(Me2s) = CN=C(NC)NCCC[C@H](N)C(=O)O

Assays:
[1] = target: T1, Krimper eTud1 (residues 272-512) (Drosophila melanogaster, UniProt A1ZAC4); experiment: ITC analysis of Krimper eTud1 with Ago3 or Aub peptides; format: binding; conditions: Fig. 1f
T1 construct: Krimper eTud1 (residues 272-512) was cloned into a self-modified pSumo vector; 10xHis (N, cleaved yes); yeast SUMO (N, cleaved yes); made in house; host or cells: E. coli BL21(DE3) Rosetta
T1 sequence (A1ZAC4 272-512): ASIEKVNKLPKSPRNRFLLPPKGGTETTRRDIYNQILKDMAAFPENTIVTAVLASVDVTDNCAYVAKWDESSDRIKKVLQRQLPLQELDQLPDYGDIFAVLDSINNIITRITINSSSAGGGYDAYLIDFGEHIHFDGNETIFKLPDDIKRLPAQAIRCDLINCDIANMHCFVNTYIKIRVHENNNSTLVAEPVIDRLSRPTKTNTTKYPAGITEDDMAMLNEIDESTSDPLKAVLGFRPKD
From the text: However, the region of Krimper responsible for Ago3 binding remained unknown. To study the Ago3-Krimper interaction, we expressed and purified eTud1 and eTud2 domains of Krimper (Fig. 1c) and tested their binding to peptides derived from the N-terminal Ago3 sequence using isothermal titration calorimetry (ITC) (Fig. 1f and Supplementary Fig. 1a). […] Thus, the two Tudor domains of Krimper have different binding preferences ensuring that Aub and Ago3 can bind Krimper simultaneously without direct competition for a binding site.
Krimper eTud1 (residues 272-512) was cloned into a self-modified pSumo vector with 10×His tag followed by a yeast sumo sequence. The plasmid was transformed into E. coli strain BL21(DE3) Rosseta and cultured at 37 °C in LB medium. The protein expression was induced by adding IPTG to a final concentration of 0.2 mM when the OD600 reached 0.7, and the cells were cooled to 16 °C. The recombinant expressed protein was purified using a HisTrap column (GE Healthcare). The […] plus yeast sumo tag was removed by ulp1 protease digestion followed by a second step HisTrap column (GE Healthcare). The target protein was further purified using MonoQ and Superdex G75 columns (GE Healthcare).
All ITC was performed using the Malvern PEAQ ITC instrument (Malvern) in a buffer of 50 mM NaCl, 20 mM HEPES pH 7.5, and 2 mM β-mercaptoethanol. […]

Krimper eTud1ΔC = target: T2, Krimper eTud1ΔC (Drosophila melanogaster, UniProt A1ZAC4); format: binding; conditions: ITC, Fig. 1f, unmethylated Ago3-2 peptide
T2 construct: Krimper contains two extended Tudor domains: eTud1(272-512) and eTud2 (562-746); made in house
Method: All ITC was performed using the Malvern PEAQ ITC instrument (Malvern) in a buffer of 50 mM NaCl, 20 mM HEPES pH 7.5, and 2 mM β-mercaptoethanol. Data analysis was performed using the Malvern data analysis software and Origin 7.0.

[2] = target: Krimper eTud1 (residues 272-512) (Drosophila melanogaster) (UniProt A1ZAC4); experiment: ITC; Malvern PEAQ ITC; 50 mM NaCl, 20 mM HEPES pH 7.5, 2 mM β-mercaptoethanol; Krimper Tudor domain with peptides
[3] = target: T3, Krimper eTud2 (residues 562-746) (Drosophila melanogaster, UniProt A1ZAC4 562-746); experiment: ITC; R72me2
T3 chain: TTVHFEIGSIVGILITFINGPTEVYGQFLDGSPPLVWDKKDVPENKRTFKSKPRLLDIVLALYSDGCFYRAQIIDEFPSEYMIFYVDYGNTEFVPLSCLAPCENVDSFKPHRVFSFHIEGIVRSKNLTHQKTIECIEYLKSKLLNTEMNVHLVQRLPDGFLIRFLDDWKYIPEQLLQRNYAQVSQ

[4] = target: T3, Krimper eTud2 (residues 562-746); experiment: ITC; R15me2
[5] = target: T3, Krimper eTud2 (residues 562-746); experiment: ITC; R68me2
[6] = target: T3, Krimper eTud2 (residues 562-746); experiment: ITC; R70me2

Molecule: NISVGRGRARLIDTLK [Ago3-2]
binding affinity of eTud1 ΔC compared with eTud1 (in words) (Krimper eTud1ΔC): higher binding affinity

Molecule: Ago3-2 peptide (aa residues 63-78 of Ago3) (from UniProt Q7PLK0 63-78)
Kd [2]: 62.8 µM

B1: Ago3-2 peptide methylated at R72 (peptide)
peptide: NISVGRGRA[Arg(Me2s)]LIDTLK
Kd [3]: 34.5 µM

B3: Ago3-2 peptide methylated at R68 (peptide)
peptide: NISVG[Arg(Me2s)]GRARLIDTLK
Kd [5]: 6.67 µM

B4: Ago3-2 peptide methylated at R70 (peptide)
peptide: NISVGRG[Arg(Me2s)]ARLIDTLK
Kd [6]: 2200 nM

The remaining lines, values ahead:

binding to eTud1 (in words) [1]: does not detectably interact
Molecule: H-NPVIARGRGRGRK-OH [Aub-1, unmethylated peptide from the N-terminal RG-repeat region of Aub used for ITC and structural analysis]

Kd [4]: 8.26 µM
B2: Aub-R15me2 peptide (peptide)
chain: NPVIARGRGRGRK
modifications: also: symmetric dimethylarginine at R15
